Measured values from patent US20140134155A1 (TECHNISCHE UNIVERSIT T DRESDEN, published 2014).
One block for each binder: values may come before it.

Legend:
[1] = target: T1, prostate-specific stem cell antigen (PSCA) (human, UniProt O43653 12-83); experiment: cell-based or functional assay
T1 sequence (looked up): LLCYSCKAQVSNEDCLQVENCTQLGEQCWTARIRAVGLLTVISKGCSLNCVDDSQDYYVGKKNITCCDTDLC

[2] = target: T2, prostate-specific stem cell antigen (PSCA) (human) (UniProt O43653); experiment: cell-based or functional assay
T2 sequence (looked up): T1 sequence (looked up)

- specific lysis of 51Cr-loaded PC3-PSCA tumor cells (chrome release test, effector target ratio 10:1, 20 h) [1]: > 90%
B1: humanized bispecific scBsTaFv CD3-PSCA(MB1) (bispecific antibody)
chain: QVQLVQSGAEVKKPGASVKVSCKASGYTFTKYVIHWVRQAPGQGLEWMGYINPYNDVSKYNEKFRGRVTMTTDTSTSTAYMELRSLRSDDTAVYYCARNKDYYPMDYWGQGTTVTVSGGGGSGGGGSGGGGSEIVLTQSPATLSLSPGERATLSCSASSSVSYMHWYQQKPGQAPRLLIYDTSKLASGIPARFSGSGSGTDFTLTISSLEPEDFAVYYCQQWSSNPLTFGGGTKVEIKDIQMTQSPSSLSASVGDRVTITCGTSQDINNYLNWYQQKPGKVPKLLIYYTSRLHSGVPSRFSGSGSGTDFTLTISSLQPEDVATYYCQQSKTLPWTFGGGTQLTVLGGGGSGGGGSGASAAGGGGSGGGGSQVQLVESGGGLVKPGGSLRLSCAASGFTFSSYSMSWIRQAPGKGLEWVSYINDSGGSTFYPDTVKGRFTISRDNAKNSLYLQMNSLRAEDTAVYYCARRMYYGNSHWHFDVWGQGTTVTVSS

- antibody amount giving strong lysis of PSCA-positive cells (chrome release test) [2]: < 1 ng
- specific lysis of 51Cr-loaded PC3-PSCA tumor cells (chrome release test) [2]: 80%
B2: murine bispecific scBsTaFv CD3-PSCA(MB1) (bispecific antibody, part only; not given: anti-CD3 scFv and tags, not shown: small tags and cut ends)
chain, part: VQLQESGGVLVQPGGSLKLSCAASGFTFSSYSMSWIRQTPDRRLEWVAYINDSGGSTFYPDTVKGRFSISRDNAKNTLYLQISRLRSGDTAIYYCSRRMYYGNSHWHFDVWGAGTTVTVSSGGGGSGGGGSGGGGSDIVMTQSTSSLSASLGDRVTINCGTSQDINNYLNWYQQKPDGSVKLLIYYTSRLHSGVPSRFSGSGSGTDYSLTISNLEQGDIATYFCQQSKTLPWTFGGGTKLELKRADAAPTVS

- specific lysis of 51Cr-loaded PC3-PSCA tumor cells (chrome release test) [2]: 60%
B3: murine bispecific scBsTaFv CD3-PSCA(7F5) (bispecific antibody, part only; not given: anti-CD3 scFv, linkers, tags, part only)
chain, part: QVKLQESGGGLVQPGGSLKLSCVASGFTFSSYTMSWVRRTPEKRLEWVAYIHNGGGHTYYPDTIKGRFTISRDNAKNTLFLEMSSLKSEDTAMYYCTRRMYYGNSHWYFDVWGAGTSVTVSDIQMTQSPSSLSASVGDRVTITCRTSQDISNYLNWYQQKPGKAPKLLIYYTLKLNSGVPSRFSGSGSGTDFTFTISSLQPEDIATYYCQQSKTLPWTFGGGTKVEIK
